Measurements reported in FireProtDB (doi:10.1021/bi060525p).

Details: Homo sapiens, pH 7.4, Thermal, Phosphate 10 mM

Sequence of Hemoglobin subunit alpha wild type, P69905 (P69905 whole entry): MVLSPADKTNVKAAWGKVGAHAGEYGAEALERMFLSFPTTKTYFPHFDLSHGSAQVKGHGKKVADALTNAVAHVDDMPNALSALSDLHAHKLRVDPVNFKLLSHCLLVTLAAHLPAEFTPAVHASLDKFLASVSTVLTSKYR

With “Hemoglobin subunit alpha wild type, P69905” the Tm (Absorbance) was 71 °C, the Tm (CD) was 73 °C and the Tm (DSC) was 75 °C. The Tm (Optical Density) was 58.7 °C.
